From patent US20190185562A1

B1: human Oncostatin M (ligand, UniProt P13725 26-252, looked up)
chain: AAIGSCSKEYRVLLGQLQKQTDLMQDTSRLLDPYIRIQGLDVPKLREHCRERPGAFPSEETLRGLGRRGFLQTLNATLGCVLHRLADLEQRLPKAQDLERSGLNIEDLEKLQMARPNILGLRNNIYCMAQLLDNSDTAEPTKAGRGASQPPTPTPASDAFQRKLEGCRFLHGYHRFMHSVGRVFSKWGESPNRSRRHSPHQALRKGVRRTRPSRKGKRLMTRGQLPR
B2: human Ciliary Neurotrophic Factor (ligand, UniProt P26441 2-200, looked up)
chain: AFTEHSPLTPHRRDLCSRSIWLARKIRSDLTALTESYVKHQGLNKNINLDSADGMPVASTDQWSELTEAERLQENLQAYRTFHVLLARLLEDQQVHFTPTEGDFHQAIHTLLLQVAAFAYQIEELMILLEYKIPRNEADGMPINVGDGGLFEKKLWGLKVLQELSQWTVRSIHDLRFISSHQTGIPARGSHYIANNKKM

Tests used:
[1] = target: gp130 expressed endogenously on IMR-32/STAT3-Luc cells (human) (UniProt P40189); assay: cell-based or functional assay
Chain of gp130 expressed endogenously on IMR-32/STAT3-Luc cells (human) (P40189 23-918): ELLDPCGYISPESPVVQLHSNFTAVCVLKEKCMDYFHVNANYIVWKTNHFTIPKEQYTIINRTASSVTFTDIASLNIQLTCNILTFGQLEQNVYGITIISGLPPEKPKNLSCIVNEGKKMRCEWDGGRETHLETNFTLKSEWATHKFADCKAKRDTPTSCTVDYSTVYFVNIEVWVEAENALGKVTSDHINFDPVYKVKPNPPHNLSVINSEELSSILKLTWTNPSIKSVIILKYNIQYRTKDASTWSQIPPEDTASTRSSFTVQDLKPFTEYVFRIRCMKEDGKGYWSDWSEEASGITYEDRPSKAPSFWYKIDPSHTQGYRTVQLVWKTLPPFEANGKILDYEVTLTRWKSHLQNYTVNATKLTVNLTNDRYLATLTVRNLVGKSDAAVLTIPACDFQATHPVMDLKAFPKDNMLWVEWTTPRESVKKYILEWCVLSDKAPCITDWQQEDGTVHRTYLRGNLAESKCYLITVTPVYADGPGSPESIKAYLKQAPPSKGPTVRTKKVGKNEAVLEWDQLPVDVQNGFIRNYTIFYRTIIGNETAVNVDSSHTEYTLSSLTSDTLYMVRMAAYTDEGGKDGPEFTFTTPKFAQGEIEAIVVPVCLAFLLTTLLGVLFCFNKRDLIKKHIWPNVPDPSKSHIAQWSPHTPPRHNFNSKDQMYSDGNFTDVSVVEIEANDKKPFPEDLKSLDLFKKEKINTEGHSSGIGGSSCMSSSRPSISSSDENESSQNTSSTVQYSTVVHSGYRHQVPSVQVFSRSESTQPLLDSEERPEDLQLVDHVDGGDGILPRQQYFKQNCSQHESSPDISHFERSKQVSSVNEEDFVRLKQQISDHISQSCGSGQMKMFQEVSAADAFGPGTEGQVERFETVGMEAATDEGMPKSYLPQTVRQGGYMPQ

[2] = target: wild-type human GP130 on HEK293.STAT3.Luc.GP130.hLEPR reporter cells (human) (UniProt P40189); assay: cell-based or functional assay
Chain of wild-type human GP130 on HEK293.STAT3.Luc.GP130.hLEPR reporter cells (human) (P40189 23-918): as above

Binder | EC50 of activation of IMR-32/STAT3-luc cells (STAT3-luciferase) [1] [nM] | EC50 (M), STAT3-luciferase activation of HEK293.STAT3.Luc.GP130.hLEPR (Y1141F) cells [2] [M] | EC50 (M), STAT3-luciferase activation of HEK293.STAT3.Luc.GP130.hLEPR (a) cells [2] [M] | Percentage activation as compared to hOSM [2] [%] | Percentage maximum activation as compared to hOSM [2] [%]
B1 | 0.054 | 5.92e-10 | 1.21e-10 | 100 | 100
B2 | 0.004 |  |  |  | 
